{"source": "the nanobody polyreactivity screen of Harvey et al. (2022)"}
{"assay": "yeast display, Sf9 membrane polyspecificity reagent, FACS + sequencing; frameworks hold sequencing errors", "how_it_was_run": "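In a synthetic yeast display library (Saccharomyces cerevisiae BJ5465), nanobody expression was induced with galactose for 36–48 hours. FACS gates were set low and high (top ~1%) using anti-HA fluorescence for expression and streptavidin fluorescence for binding of the Sf9 membrane reagent. Each polyreactivity label is drawn from the gate of origin.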"}
{"sequence": "QVQLVESGGGLVQAGGSLRLSCAASGRIFAYNTMGWYRQAPGKERELVAVITSGGSTNYADSVNGRFTISRDNAKNTVYLQMNSLKPEDTAVYYCAKRPYGRSGGSRYDYWGQGTQVTVSS", "polyreactivity (PSR sort gate)": "high polyreactivity"}
{"sequence": "QVQLVESGGGLVQAGGSLRLSCAASGRIFAYNTMGWYRQAPRKERELVAVITSGGATNYADSVKGRFTISRDNAKNTVYLQMNSLKPEDTAVYYCAKRPYGRSGGSRYDYWGQGTQVTVSS", "polyreactivity (PSR sort gate)": "high polyreactivity"}
{"sequence": "QVQLVESGGGLVQAGGSLRLSCAASGRIFAYYAMGWYRQAPGKERELVAAINRSGVRTYYADSVKGRFTISRDNAKNTVYLQMNSLKPEDTAVYYCAAPGQHSWGQGTQVTVSS", "polyreactivity (PSR sort gate)": "high polyreactivity"}
{"sequence": "QVQLVESGGGLVQAGGSLRLSCAASGRIFAYYAMGWYRQAPGKERELVAAISRSGGSTYYADSVKGRFTISRDNAKNTVYLLMNSLKPEDTAVYYCNVVRVRYYWWEFDYWGQGTQVTVSS", "polyreactivity (PSR sort gate)": "high polyreactivity"}
{"sequence": "QVQLVESGGGLVQAGGSLRLSCAASGRIFAYYAMGWYRQAPGKERELVAAISRSGVSTYYADSVKGRFTISRDNAKNTVYLQMNSLKPEDTAVYYCDARWRSGFTSVDYWGQGTQVTVSS", "polyreactivity (PSR sort gate)": "low polyreactivity"}
{"sequence": "QVQLVESGGGLVQAGGSLRLSCAASGRIFAYYAMGWYRQAPGKERELVATINYSGTSTYYADSVKGRFTISRDNAKNTVYLQMNSLKPEDTAFYYCAADLTSRLLWYHIERFDYWGQGTQVTVSS", "polyreactivity (PSR sort gate)": "high polyreactivity"}
{"sequence": "QVQLVESGGGLVQAGGSLRLSCAASGRIFAYYAMGWYRQAPGKERELVATISTGGGTYYADSVKGRFSISRDNAKNTVYLQMNSLKPEDTAVYYCAAAPYWYYGYYYWGQGTQVTVSS", "polyreactivity (PSR sort gate)": "high polyreactivity"}
{"sequence": "QVQLVESGGGLVQAGGSLRLSCAASGRIFAYYAMGWYRQAPGKERELVAVISKSGGSTNYADSVKGRFTISRDYAKNTVYLQMNSLKPEDTAVYYCAKRAYDPEMYYWGQGTQVTVSS", "polyreactivity (PSR sort gate)": "low polyreactivity"}
{"sequence": "QVQLVESGGGLVQAGGSLRLSCAASGRIFAYYAMGWYRQAPGKEREMVAAISRSGGSTYYADSVKGRFPISRDNAKNTVYLQMNSLKPEDTAVYYCAASLKVPYATMNYWGQGTQVTVSS", "polyreactivity (PSR sort gate)": "high polyreactivity"}
{"sequence": "QVQLVESGGGLVQAGGSLRLSCAASGRIFCGYAMGWYRQAPGKERELVAAITSGGRTYYADSVKGRFTISRDNAKNTVYLQMNSLKPEDTAVYYCAAVYVPYYWLGRSRGLDYWGQGTQVTVSS", "polyreactivity (PSR sort gate)": "high polyreactivity"}
{"sequence": "QVQLVESGGGLVQAGGSLRLSCAASGRIFDDYAMGWNRQAPGKERELVAAISSSVGNTYYADSVKGRFTISRDNAKYTVYLQMNSLKPEDTAVYYCADYSYVRSSYEVEYDYWGQATQVTVSS", "polyreactivity (PSR sort gate)": "low polyreactivity"}
{"sequence": "QVQLVESGGGLVQAGGSLRLSCAASGRIFDFNAMGWYRQAPGKEREFVAAIRTSGGDSTYYADSVKGRFTISRDNAKNTVYLQMNSLKPEDTAVYYCAKTVWWYYRYPFDYWGQGTQVTVSS", "polyreactivity (PSR sort gate)": "low polyreactivity"}
{"sequence": "QVQLVESGGGLVQAGGSLRLSCAASGRIFDFNAMGWYRQAPGKEREFVAAIRTSGGDSTYYADSVKGRFTISRDNEKNTVYLQMNSLKPEDTAVYYCAKTVWWYYRYPFDYWGQGTQVTVSS", "polyreactivity (PSR sort gate)": "low polyreactivity"}
{"sequence": "QVQLVESGGGLVQAGGSLRLSCAASGRIFDGYAMGWYRQAPGKERELVAAISSRGGRTYYADSVKGRFTISRDNAKNTVYLQMNSLKPEDTAVYYCAADDPYGEGDYWGQGTQVTVSS", "polyreactivity (PSR sort gate)": "low polyreactivity"}
{"sequence": "QVQLVESGGGLVQAGGSLRLSCAASGRIFDHYAMGSYRQAPGKERELVAAISGGGDSTYYAYSVKGRFTISRDNAKNTVYLQMNSLKPEDTAVFYCAADFYVYWGNYAQDYYYWGQGTQVTVSS", "polyreactivity (PSR sort gate)": "high polyreactivity"}
{"sequence": "QVQLVESGGGLVQAGGSLRLSCAASGRIFDIYAMGWYRPAPRKERELVAAITRRGGTTYADSVKGRFTISRDNAKNTVYLQMNSLKPEVNAVYYCAAGLYFRKWYSWTRYEYWGQGTQVTVSS", "polyreactivity (PSR sort gate)": "high polyreactivity"}
{"sequence": "QVQLVESGGGLVQAGGSLRLSCAASGRIFDIYTMGWYRQAPGNERELVASITKRGGSTYYADSVKGRFTISRDNAKNTVYLQMNSLKPEDTAVYYCNVAGKQKPYYVTTRLDYWGQGTQVTVSS", "polyreactivity (PSR sort gate)": "high polyreactivity"}
{"sequence": "QVQLVESGGGLVQAGGSLRLSCAASGRIFDLNAMGWYRQAPGKERELVAVITGSGGSTYYADSVKGRFTISRDNAKNTVYLQMNSLKPEDTAVYYCNAYTQQYRSYGYWGQGTQVTVSS", "polyreactivity (PSR sort gate)": "low polyreactivity"}
{"sequence": "QVQLVESGGGLVQAGGSLRLSCAASGRIFDLYTMGWYRQAPGKERELVAAIRWSDGSTYYADSVTGRFTISRDNAKNTVYLQMNSLKPEDTAVYYCAADTRTSYYNDDYDYWGQGTQVTVSS", "polyreactivity (PSR sort gate)": "low polyreactivity"}
{"sequence": "QVQLVESGGGLVQAGGSLRLSCAASGRIFDLYTMGWYRQAPGKERELVAAITSSGDSTYYADSVKGRFTISRDNAKNTVYLQMNSLKPEDTAVYYCAAESKYWEPWWYYYYDMDYWGQGTQVTVSS", "polyreactivity (PSR sort gate)": "low polyreactivity"}
{"sequence": "QVQLVESGGGLVQAGGSLRLSCAASGRIFDNYAMGWYRQAPGKERELVAAITYIDSGTYYADSVKGRFTISRDNAKNTVYLQMNSLKPEDTAVYYCAVRLNSDSKRKTQKFGYWGQGTQVTVSS", "polyreactivity (PSR sort gate)": "low polyreactivity"}
{"sequence": "QVQLVESGGGLVQAGGSLRLSCAASGRIFDNYAMGWYRQAPGKERELVAAITYIDSGTYYADSVKGRFTISRDNAKNTVYLQMNSLKPEDTAVYYCAVRLNSDSKRKTQKYGYWGQGTQVTVSS", "polyreactivity (PSR sort gate)": "low polyreactivity"}
{"sequence": "QVQLVESGGGLVQAGGSLRLSCAASGRIFDPNAMGWYRQAPGKERELVARIRWWSDGSTYYADSVKGRFTISRDNAKNTVYLQMNSLKPEDTAVYYCATTANRVYGYAPWFGPRSEYWGQGTQVTVSS", "polyreactivity (PSR sort gate)": "high polyreactivity"}
{"sequence": "QVQLVESGGGLVQAGGSLRLSCAASGRIFDRNAMGWSRQAPGKERELVAAITRSGGRTYYADSVKGRFTISRDNAKYTVYLQMNSLKPEDTAVYYCNRGYPRSVVHYNSWGQGTQVTVSS", "polyreactivity (PSR sort gate)": "high polyreactivity"}
{"sequence": "QVQLVESGGGLVQAGGSLRLSCAASGRIFDRYAMGWYRLAPGKERELVAAITTSSGGSTYYADSVKGRFTISRDNAMNTVYLQMQSLNPEDTAVYYCAADRRYNVIGEFGYWGQVTQVTVSS", "polyreactivity (PSR sort gate)": "low polyreactivity"}
{"sequence": "QVQLVESGGGLVQAGGSLRLSCAASGRIFDRYVMGWYRQAPVKERALVAAISDGGSTYYADSVKGRFTISRDNAKNTVYLQMISLKPEDTAVYYCNAAFYPNENYYLIYDYWGQGTQVTVSS", "polyreactivity (PSR sort gate)": "low polyreactivity"}
{"sequence": "QVQLVESGGGLVQAGGSLRLSCAASGRIFDSNAMGWYRQAPGKERELVATISYRGGRTYYADSVKGRFTISRDNAKNTVYLQMNSLKPEDTAVYYCAVRYWVSGFRAGYYWGQGTQVTVSS", "polyreactivity (PSR sort gate)": "high polyreactivity"}
{"sequence": "QVQLVESGGGLVQAGGSLRLSCAASGRIFDTYAMGWDRPAPRKERELVAAINSGGRTYYADSVKGRFTISRDNAKNTVYVQMNSLKPEDTAVYYCAAYITYSYGRYGSWGQGTQVTVSS", "polyreactivity (PSR sort gate)": "high polyreactivity"}
{"sequence": "QVQLVESGGGLVQAGGSLRLSCAASGRIFDTYAMGWYRQAPGKERELVAAITRRGGSTYYADSVKGRFTISRDNAKNTVYLQMNSLKPEDSAVYYCAKSLVNRHYDYWGQGTQVTVSS", "polyreactivity (PSR sort gate)": "low polyreactivity"}
{"sequence": "QVQLVESGGGLVQAGGSLRLSCAASGRIFDVNDMGCYRQAPGKERELVAAITYSGTDTYYADSVKGRITISRDNAKNTVYLQMNSLKPEDTAVYYCAAEFTGWEYIGRDYWGQGTQVTVSS", "polyreactivity (PSR sort gate)": "low polyreactivity"}
{"sequence": "QVQLVESGGGLVQAGGSLRLSCAASGRIFDYNAMGWYRQAPGKERELVAAINSGGSTYADSVKGRFTISRDNAKNTVYLQMNSLKPEDTAVYYCAKSLGQTDWEYDSWGQGTQVTVSS", "polyreactivity (PSR sort gate)": "low polyreactivity"}
{"sequence": "QVQLVESGGGLVQAGGSLRLSCAASGRIFDYNAMGWYRQAPGKERELVAAITKDDGSTYYADSVKGRFTISRDNAKNTVYLQMNSLKPEDTAVYYCAAEFYWTYVDIWYDYWGQGTQVTVSS", "polyreactivity (PSR sort gate)": "low polyreactivity"}
{"sequence": "QVQLVESGGGLVQAGGSLRLSCAASGRIFDYNTMGWSRQAPGKERELVAAITGGTGSTYYADSVKGRFTISRDNAKNTVYLQMNSLKPEDTAVYYCAAGFHKRVTPEILYDYWGQGTQVTVSS", "polyreactivity (PSR sort gate)": "low polyreactivity"}
{"sequence": "QVQLVESGGGLVQAGGSLRLSCAASGRIFDYYAMGWYRQAPGKERELVAAINRGGNTYYADSVKGRFTISRDNAKNTVYLQMNSLKPEETSVYYCNAQWYYLRYRYDYWGQGTQVTVSS", "polyreactivity (PSR sort gate)": "high polyreactivity"}
{"sequence": "QVQLVESGGGLVQAGGSLRLSCAASGRIFDYYAMGWYRQAPGKERELVASISRSGGSTYYADSVKGRFTISRDNAKNTVYLQMNSLKPEDTAVYYCAARRGYYYGRVGYWGQGTQVTVSS", "polyreactivity (PSR sort gate)": "high polyreactivity"}
{"sequence": "QVQLVESGGGLVQAGGSLRLSCAASGRIFDYYTMGGYRQAPGKETELVAAINWSGGSTYYADSVKGRFTISRDNAKNTVYLQMNSLKPEDTAVYYCATLSYGREYGYWGQGTQVTVSS", "polyreactivity (PSR sort gate)": "low polyreactivity"}
{"sequence": "QVQLVESGGGLVQAGGSLRLSCAASGRIFDYYTMGWYRQAPGKERELVAAITWIGGSTYYADSVKGRFTISRDNAKNTVYLQMKSLKPEETAVYYCYAEGTALPYRADTVGGYYYWGQGTQVTVSS", "polyreactivity (PSR sort gate)": "low polyreactivity"}
{"sequence": "QVQLVESGGGLVQAGGSLRLSCAASGRIFEHNAMGWYRQAPGKEREFVAAISSSGGSTYYADSVKGRFTISRDNAKNTVYLQMNSLKPEDTAVYYCNAGSTYYERNYWGQGTQVTVSS", "polyreactivity (PSR sort gate)": "low polyreactivity"}
{"sequence": "QVQLVESGGGLVQAGGSLRLSCAASGRIFEHNTMGWYRQAPGKERELVAAINWRGGSTYYADSVKGRFTISRYNAKNTVYLQMNSLKPEDTAVYYCNKYWWSYSYASGYNYWGQGTQVTVSS", "polyreactivity (PSR sort gate)": "high polyreactivity"}
{"sequence": "QVQLVESGGGLVQAGGSLRLSCAASGRIFEHYAMGWYRQAPGKERELVAAITSSGDSTYYADSVKGRFTISRDNAKNTVYLQMNSLKPEDTAVYYCNAVAYISYLWGYYLSTPYDYWGQGTQVTVSS", "polyreactivity (PSR sort gate)": "high polyreactivity"}
